Measurements reported in PMC9791688, “Bioluminescence Goes Dark: Boosting the Performance of Bioluminescent Sensor Proteins Using Complementation Inhibitors” (ACS Sensors, 2022).

Target: T1, LgBiT (C-terminal GTTSA linker and Strep-tag (WSHPQFEK) omitted)
T1 chain: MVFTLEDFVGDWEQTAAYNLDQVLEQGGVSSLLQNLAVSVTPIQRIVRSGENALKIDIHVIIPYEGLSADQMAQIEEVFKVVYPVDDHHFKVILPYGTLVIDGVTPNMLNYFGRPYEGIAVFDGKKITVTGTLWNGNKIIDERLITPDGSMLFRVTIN
Experiment: split reporter (BiFC, NanoBiT); competition: DarkBiT101 titrated to 75 pM SmBiT86 and 0.75 nM LgBiT, loss of luminescence; 1x PBS, 0.02% Tween20, 4 °C for 16 h before addition of 1:1000 NanoGlo
Conditions: both partners purified

Ki: 2600 ± 400 nM
Binder: VTGYALFEKES [DarkBiT101 peptide]
